# Experimental data published in the domain aggregation screens of Martell et al. (2025).
# Assay: soluble fraction after stress (log2 fold change); higher = more stays soluble; pooled small domains, quantitative proteomics
# Details: stress: pH 4
# Method in brief: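 Aggregation propensity is read out as the fold change in how much of each domain remains soluble after acid stress. The custom small-domain libraries were pooled, held at pH 4 and analysed with high-throughput quantitative proteomics. On the log2 scale used, higher values mean more of the domain stayed soluble.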
row,Sequence,soluble fraction (log2)
1,HMSVEVPNLIGKTLDQVDIDLKSLDLSFVILDSARYNSSFKPLSVIDHQPISGAKVKVNRKIYLTINPS,-0.358
2,HMIKVASVDGASDELAHEIREIMPLDFPVSYFDLDIKYLHKVLNDIPAVESAAIKVTVSGVLQIDISER,0.248
3,HMSASSDATRQRVLRAAEQLFGAKGVENVSLREMTTLAGVNLAAVNYHFGSKDALAEAVFEALSER,0.138
4,HMSRSLEIDVLVKALLEQDRRKFMLVTDGTADVTVRYNNALPSLFREGQGVVAEGLMDNGKFIATNVLAK,-0.793
5,HMIQNEITLMLQVNGKLRGQIQVPSDASKEQIEQLAKDSEAAQKALAGASPKKIIVVPGRLVNIV,0.183
6,HMAPGASEVPDLTSLPAREALLRLTKLGLLPEMEGTGRLVRQQPAAGTRVPKGSKVHLVFEPG,0.0438
7,HMETYNLDVGDSAVLQYQNVSRISVGNPDVLDAIPLDKSQILLTGKATGGAALIVWDSKGMHMEKVMVHPA,-0.152
8,HMNNSVAYSTFLNDIRTNTLKDVDMTSNSETINVTKKDGTKYQTVMPMYDRDLLADLSKTDATVTGQP,-0.155
9,HMALKSGVIAHAVDDAVMRGLNVFTVSDDGSIVSMKDNDIVLGKDGKSPYSVSEWLEELKPNVPHWFG,-0.256
10,HMTPVIINESGGDQDTRIEGLNDNNLLYVDASTDRVGVGVATPTQKLDVNGDVAISGGSLYLSQ,-0.0183
11,HMNGNLRAQVLELMGRADYEPLNKSELSRKLDLQGSDRSSLRILMDELERDHSVVRLKKGRFALKVV,0.0349
12,HMKETKVIHVHLIFKKTSRFFGSISAIYSEFTAEEIGITEETLRHKGLSDGVSFATKKAIIQQGVLIR,-1.45
13,HMNNVRIEHIDTIGTVRLHKKRGVKRVSLRIHQSGEIRVTQPLYLPFSAGVLFAKSHTEWIMKQKQK,0.0224
14,HMASQFSLIVTQADAGMRLDSLLAVSGAYPSRSAAVKQIEAGKVLVNGLARSKRSIVAPGDTIVYEEIP,-0.0502
15,HMKLTESQLHKFTNDAVLAHIRNLIEFKGAFTEDDIEPIIRDRAAVYGIDLEDEDYKKVKTDVEYHFK,-1.53
16,HMKAKPTLLTPYEERLKGWLETDSRRPKRDRRTGLALFAKLQQEGFTGSYTRVTEYIRRWRDSGG,0.0729
17,HMTIRLKELRKQKGNTQAEVAKILGTNQSQYGKYENERTQLSLDNAKILSDYFGVSVPYLLGLDDNP,-0.486
18,HMSLDLNENEKTIFDIIQNKKTIRLSELKIEAGLSNKGWDKAMKSLTKQGLAKVVKTEDQLTVKLL,0.0483
19,HMSAEAYLSFVKKENLRAAVVNYENNKEWLKDVPHERLLDLAVFAKVDMGEPGMSMKFNNWLLSR,-1.12
20,HMLEQSYYEKTDEIIELHGAKASSLIPVMQDVQAEYRYLPGELLSYIADKLGIPLAKAYSVATFYENFS,-0.951
21,HMEDVDTAALEKVIATAKGLNKNDYTATTWTTMQAALTNAEKALEAKKSQTSVDEAAKTLQAAIDGLKKAS,-0.103
22,HMAKDSQSADVLQAIFDGSKVLNGLALDQDMRWDLINGLVMSGRLGVEAIEAEAAKLAKLVEELEFR,-1.21
23,HMPDDHFIRGYVTAVLEQVLKVPSIQVEVERGVVILRGDLPGEERQELLDAVSRIHGVARVEYIPL,-0.281
24,HMLQEHVLEIRHPSWNDAFRIIGHDGWRTQTGAHAAILSYDEEELNIKWDSWGYERFIRDEKGIFRLAA,-0.165
25,HMSADIGAEKAKTIALNHAGVSASNAVFLHAKLDYDDGRRTYEVEFYSGSKEYDYEIDAATGEILSYDFD,0.327
26,HMHSESAAHQRTSVELFARIPETGNLQSAQRHFDVINQFGRFPHRNKILQRPSSEQEEAFLRQPGSG,-0.0644
27,HMNKDWQDEVALQRYTMITPLLSEDLDNAKRIAMREKIAQDNLTTARSLYRYEKAYRENGFQGLRPTD,-0.262
28,HMADKHVAAALLKLMDHLVGGRQYAFMKGRLTINKKVVLEATEVSAYRRGTGLSDADWQQRYE,-0.978
29,HMSASSTAPGSVTLRGAILTAWTAAGGERSKMGLPVGYEVRQADGTVTQTFEKGRISVSPTGTATI,-0.0391
30,HMKQLVVVPRVVSLSEGKAREDVGDRGLVVDRVEMDTLRTPYENTVTRQEPAADSRVPVGTRVTLWISPGV,-0.0648
